Assay results as given in the RNAGym collection of RNA variant scans (doi:10.7554/elife.80360).

B1: HDV Ribozyme (parent)
chain: GGCCGGCAUGGUCCCAGCCUCCUCGCUGGCGCCGGCUGGGCAACAUUCCGAGGGGACCGUCCCCUCGGUAAUGGCGAAUGGGACCCA

Variants of: B1
Test: self-cleavage, relative activity (ratio to wild type); higher = more cleavage; co-transcriptional

Row | Variant | self-cleavage
1 | C62U C63U | 1.11
2 | C62U C63G | 0.654
3 | C62A C84G | 0.764
4 | C62A C84A | 0.862
5 | C62G G82A | 0.267
6 | U60C C61A | 0.831
7 | U60C C61G | 0.751
8 | C62U G67A | 1.12
9 | C61U G82C | 0.281
10 | C63A C84A | 0.96
11 | C62U A71C | 0.812
12 | C62U A71G | 0.997
13 | C62G C75G | 0.26
14 | C62G C75A | 0.17
15 | U60C G80A | 0.386
16 | C62G A78G | 0.745
17 | C62G A78U | 0.297
18 | C62A A83G | 0.683
19 | C62A A83U | 0.494
20 | C62U G76U | 1.06
21 | C62U G76A | 1.12

Row | Variant | self-cleavage
22 | C62G U79G | 1.03
23 | C62G U79A | 0.489
24 | C61A C63A | 0.689
25 | C61A C63G | 0.499
26 | C61A C63U | 1.07
27 | U60G A70C | 0.95
28 | U60G A70G | 0.911
29 | C62U A83G | 0.818
30 | C62A C86A | 1.01
31 | C61U G81U | 0.273
32 | C61U G81C | 0.29
33 | U60G C85G | 1.09
34 | U60G C85U | 1.15
35 | U60G C85A | 0.767
36 | C62G G68C | 0.196
37 | C62U C86G | 0.831
38 | C62U C86A | 0.82
39 | C61A C86G | 0.908
40 | C62A U79C | 0.339
41 | C62A U79A | 0.636
42 | C61U G73C | 0.629

Row | Variant | self-cleavage
43 | C61U G73U | 0.383
44 | U60G A77C | 0.227
45 | U60G A77U | 0.237
46 | C62U G68A | 0.946
47 | C61A A83U | 0.47
48 | C62G A71C | 0.443
49 | C62G A71U | 0.489
50 | U60C G81C | 0.291
51 | C62G U69C | 0.534
52 | C61A C64A | 0.96
53 | C61A C64G | 0.791
54 | C62A G80C | 0.0594
55 | C62A G80A | 0.282
56 | C61G A87G | 0.994
57 | C61G A87U | 0.943
58 | C62G G80A | 0.185
59 | C62G G80U | 0.185
60 | C61A A78C | 0.145
61 | U60G A71C | 1.21
62 | U60G A71U | 0.918
63 | C62U C84G | 0.692

Row | Variant | self-cleavage
64 | C62U C84A | 1.14
65 | C62U C84U | 0.819
66 | C61G G80A | 0.434
67 | U60G U72G | 0.646
68 | C61U C62G | 0.694
69 | C61U C62A | 0.978
70 | C61U C62U | 0.644
71 | C61U A77U | 0.475
72 | C62U G73C | 0.354
73 | C61U G68U | 0.95
74 | C61U G68C | 0.581
75 | C62U G82U | 0.402
76 | C62A C85A | 0.767
77 | U60G U69A | 0.965
78 | U60C G74U | 0.348
79 | U60C G74A | 0.591
80 | U60C C63U | 0.98
81 | C61A C62A | 0.904
82 | C61A G76C | 1.08
83 | C61A G76A | 1.02
